Measured values reported in paper PMC11033958.

Legend:
[1] = molecular target: ACKR3_RlucII (N-terminally FLAG-tagged human ACKR3, residues 2–362, with a C-terminal fusion of Renilla luciferase II) (human) (UniProt P25106)
[2] = molecular target: purified ACKR3:CXCL12_(LRHQ) complex, ACKR3 phosphorylated in vitro by GRK5 (UniProt P25106); assay: pull-down; 1.1 µM purified ACKR3:LRHQ complex phosphorylated by 1.1 µM GRK2 or GRK5 (1 mM ATP, 20 min, room temperature), 2.2 µM purified β-arrestin1 or 2 added for 40 min; captured on M2 anti-FLAG resin at 4°C, washed in 50 mM HEPES pH 7.5, 150 mM NaCl, LMNG/CHS, eluted with 3×FLAG peptide; SDS-PAGE band densities, arrestin as percent of ACKR3
[3] = molecular target: purified ACKR3:CXCL12_(LRHQ) complex, ACKR3 phosphorylated in vitro by GRK2 (UniProt P25106); assay: as above

Chain of CXCL12 (P48061 22-93): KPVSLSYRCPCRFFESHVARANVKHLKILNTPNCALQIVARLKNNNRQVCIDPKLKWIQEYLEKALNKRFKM

CXCL12 removed from the medium (25 nM CXCL12, 16 hours at 37°C) by WT HEK293A cells expressing ACKR3 RlucII, remaining chemokine by ELISA, against cells with empty vector [1]	percent of the receptor complexed with β-arrestin [2]	percent of the receptor complexed with β-arrestin [3]	Substance
64%			CXCL12 (from UniProt P48061 22-93) (ligand)
	49%		bovine β-arrestin1 (from UniProt P17870 1-418) (natural protein)
	73%	14%	bovine β-arrestin2 (1–393) (from UniProt P32120 1-393) (domain or fragment)
